Experimental data published in the DeepSol protein solubility set.

Assay: soluble on expression in E. coli; label from the status in PepcDB or PDB records

| Sequence | soluble on expression in E. coli |
| --- | --- |
| MGHDLADIKKSFEASLPGYVEKKDPKSILPQPGKRNILITAALPYVNNVPHLGNIIGCVLSADVFARYCNLRGHQTFYVGGTDEYGTATETKALQEGCTPRELCDKYHAIHKGIYEWFGIDFSHFGRTTTDHQTEICQDMFLKLHKNGYTSSQSVDQLYCNQCEKFLADRFVTGTCPMCAYDDARGDQCDGCGKLINAVDLKDAKCHMCKATPEVKQSTHIFLSLDKLQQKTTEHLDRELAKEDNRWSSNAVGITKAWMKLGLDPRCITRDLKWGTAVPLDGFEKKVFYVWFDAPIGYLSITKCVLGDNWTKWWKNPENVELFNFVGKDNVAFHAVMFPCSQLGANDNYTVVNNLCATEYLNYEDTKFSKSRGTGIFGDAAQGTEIPADIWRFYLLYMRPESQDTAFSWDDFVLKVNSELLNNLGNFINRALSFVANSFGGVVPEMNLTNDDAEVLSEIHNECMQWDKQFDGVHLKDAVKTILNVSRLGNQYMQAQTPWVLMKKDEEGKKRAGTIIGVAANIAYHVSVLLYPIMPTISATIREQCGLPALPLFTPFPICYLKAGHKIGQPSPLFQKLDPAQIAEFKAKFGGSQDAQSSAPKTAEKPKQQKKQAPTKDKKGDKKMASTAAFVELEQGAKVISQLIAQNLKKFDQAKALFTRNQLQRLDGENKQLTIDVKTLQHQLIELETAAGIKQVPKPVVSCTPTPTSTPASGIITEAPKKEAPSTPAPSEPKKAKEQKKGKGGAAAAPVDDTIDVGRLDMRVGRIIKCEKHPDADALYVEQIDVGESAPRTVVSGLVRHVPLDQMQNRLVVVLCNLKPAKMRGVESRAMVMCASSPDKVEIMEVPADSKPGTPVVCPPYTHRPDEQLNPKKKIWETVAEDLKVSAEGFAEWKGQPLLIGSESKMTAPTLRGVHVK | not soluble |
| MGHDTIAKFLLTSGSTGNPKAVINTQRMICANQVMIREAMAFLKDEPPVIVDWLPWNHTFGGNHNIGLTLFNGGSMYIDDGKPTPAGIASTIRNLREIAPTVYFNVPKGYESLLPVLREDQQLRKLFFSRLHAMFFSGASLAAHVWNGLDEVAVAETGARVPMLTGLGATETAPFFMSVTPQTSRSGHVGLPVPGLEHHHHHH | not soluble |
| MGHHHHHHGGHMSLKNYFLQRRTLMTEQLPNCPECGSAYAYEDRGLFICPECGHEWSPTEEVAEEGLVVKDSNGNLLADGDSVTVIKDLKVKGASGAIKQGTKVKNIRLVEGDHNIDCKVDGFGPMKLKSEFVKKNEGGS | soluble |
| MGHHHHHHGGHMSLKVFIDPDGDIEEIKEAFRLINPELYERLLKIDGSDEFFRYMVKPLRVSVRVNTLKAEVDEVVENLKELITGRVPWCEEGFYLSIDEFSRIPEHQLGLIFSQEAASMIPPLVMELEPKMTVLDIAASPGAKTTQIAQYLQNEGCIVANDVKHSRINILISNLQRCGVLIAKVTVKDGRYFGRFRNRFDAVLVDAPCSNMGMIRKNYRNIRLWKMRDCYGLSKLQKSLLMAAYKAVKPGGVVVYSTCTLEPIENEEVVDYILRNTDAEIEEVNLPVKGVEPFTKFDGKEYSEEVRKCLRLHPQSSDTEGFFVAKLRKPEGGS | soluble |
| MGHHHHHHHHHHSSGHIEGRHMDINGVLLLDKPQGMSSNDALQKVKRIYNANRAGHTGALDPLATGMLPICLGEATKFSQYLLDSDKRYRVIARLGQRTDTSDADGQIVEERPVTFSAEQLAAALDTFRGDIEQIPSMYSALKYQGKKLYEYARQGIEVPREARPITVYELLFIRHEGNELELEIHCSKGTYIRTIIDDLGEKLGCGAHVIYLRRLAVSKYPVERMVTLEHLRELVEQAEQQDIPAAELLDPLLMPMDSPASDYPVVNLPLTSSVYFKNGNPVRTSGAPLEGLVRVTEGENGKFIGMGEIDDEGRVAPRRLVVEYPA | soluble |
| MGHHHHHHSHAKGKERQWLRHQATGELDDAKIIDGLTGEKAIYKRRGELEPQLGSPQQKPKRLRLVVDVSGSMYRFNRMDGRLERTMEAVCMVMEAFENYEEKFQYDIVGHSGDGYNIGLVPMNKIPKDNKQRLEILKTMHAHSQFCMSGDHTLEGTEHAIKEIVKEEADEYFVIVLSDANLSRYGIHPAKFAQILTRDPQVNAFAIFIGSLGDQATRLQRTLPAGRSFVAMDTKDIPQILQQIFTSTMLSSV | not soluble |
| MGHHHHHHSHAWSGVLEWQEKPKPASVDANTKLTRSLPCQVYVNHGENLKTEQWPQKLIMQLIPQQLLTTLGPLFRNSRMVQFHFTNKDLESLKGLYRIMGNGFAGCVHFPHTAPCEVRVLMLLYSSKKKIFMGLIPYDQSGFVNGIRQVITNHKQVQQQKLEQQQRGMGGQQAPPGLGPILEDQAR | soluble |
| MGHHHHHHSHDSKACISIGNQNFEVKADDLEPIMELGRGAYGVVEKMRHVPSGQIMAVKRIRATVNSQEQKRLLMDLDISMRTVDCPFTVTFYGALFREGDVWICMELMDTSLDKFYKQVIDKGQTIPEDILGKIAVSIVKALEHLHSKLSVIHRDVKPSNVLINALGQVKMCDFGISGYLVDSVAKTIDAGCKPYMAPERINPELNQKGYSVKSDIWSLGITMIELAILRFPYDSWGTPFQQLKQVVEEPSPQLPADKFSAEFVDFTSQCLKKNSKERPTYPELMQHPFFTLHESKGTDVASFVKLILGD | not soluble |
| MGHHHHHHSHEVIKGSWQPVGDLLIDSLQDHLEKVKALRGEIAPLKENVSHVNDLARQLTTLGIQLSPYNLSTLEDLNTRWKLLQVAVEDRVRQLHEAHRDFGPASQHFLSTSVQGPWERAISPNKVPYYINHETQTTCWDHPKMTELYQSLADLNNVRFSAYRTAMKLRRLQKALCLDLLSLSAACDALDQHNLKQNDQPMDILQIINCLTTIYDRLEQEHNNLVNVPLCVDMCLNWLLNVYDTGRTGRIRVLSFKTGIISLCKAHLEDKYRYLFKQVASSTGFCDQRRLGLLLHDSIQIPRQLGEVASFGGSNIEPSVRSCFQFANNKPEIEAALFLDWMRLEPQSMVWLPVLHRVAAAETAKHQAKCNICKECPIIGFRYRSLKHFNYDICQSCFFSGRVAKGHKMHYPMVEYCTPTTSGEDVRDFAKVLKNKFRTKRYFAKHPRMGYLPVQTVLEGDNMETPVTLINFWPVDSAPAS | not soluble |
| MGHHHHHHSHHPFVRSAKGVSILRDLINEAMDVKLKRQESQQREVDQDDEENSEEDEMDSGTMVRAVGDEMGTVRVASTMTDGANTMIEHDDTLPSQLGTMVINAEDEEEEGTMKRRDETMQPAKPSFLEYFEQKEKENQINSFGKSVPGPLKNSSDWKIPQDGDYEFLKSWTVEDLQKRLLALDPMMEQEIEEIRQKYQSKRQPILDAIEAKKRRQQNF | soluble |
| MGHHHHHHSHKIRVAHTPDADDAFMFYAMTHGKVDTWLEIEHVIEDIETLNRKAFNAEYEVTAISAHAYALLDDKYRILSAGASVGDGYGPVVVAKSEISLDGKRIAVPGRYTTANLLLKLAVEDFEPVEMPFDRIIQAVLDEEVDAGLLIHEGQITYADYGLKCVLDLWDWWSEQVKLPLPLGLNAIRRDLSVEVQEEFLRAMRESIAFAIENPDEAIEYAMKYSRGLDRERAKRFAMMYVNDYTYNMPESVDAALKKLYEMAEAKGLI | not soluble |
| MGHHHHHHSHMAGWIQAQQLQGDALRQMQVLYGQHFPIEVRHYLAQWIESQPWDAIDLDNPQDRAQATQLLEGLVQELQKKAEHQVGEDGFLLKIKLGHYATQLQKTYDRCPLELVRCIRHILYNEQRLVREANNCSSP | not soluble |
| MGHHHHHHSHMANSAGSMANSAGSMPSSPLRVAVVCSSNQNRSMEAHNILSKRGFSVRSFGTGTHVKLPGPAPDKPNVYDFKTTYDQMYNDLLRKDKELYTQNGILHMLDRNKRIKPRPERFQNCKDLFDLILTCEERVYDQVVEDLNSREQETCQPVHVVNVDIQDNHEEATLGAFLICELCQCIQHTEDMENEIDELLQEFEEKSGRTFLHTVCFY | soluble |
| MGHHHHHHSHMANSAGSMANSAGSPELLTKHNRRVAQKTVESLKRSLMSTNLHPSKQVKTSSQYTIFSTPQIATTTPQTQVSPGMPLMFPGGSPNFVQDIKMENGFMDVDSQSSQCPSVERNFASPRSNCSTVDSIPPMQMGQNQTHLYLPDATNFTFNGNFASPSSNCSTVDSIPPFQIGQRNNHMYLPENSNFPVNGCSPTHFSGGSMTPINNNNNVLINNNNNDFLSQKMSAISIPPQGNFGIKQVYQQTQQFLPQLQPESIPYLAQSHPEQSQYQQQQQPQEQQPPADEPTQSFSDLISSSIGMAPIDTSELIQDIEAELNSLGIQPFK | not soluble |
| MGHHHHHHSHMANVLCNRARLVSYLPGFCSLVKRVVNPKAFSTAGSSGSDESHVAAAPPDICSRTVWPDETMGPFGPQDQRFQLPGNIGFDCHLNGTASQKKSLVHKTLPDVLAEPLSSERHEFVMAQYVNEFQGNDAPVEQEINSAETYFESARVECAIQTCPELLRKDFESLFPEVANGKLMILTVTQKTKNDMTVWSEEVEIEREVLLEKFINGAKEICYALRAEGYWADFIDPSSGLAFFGPYTNNTLFETDERYRHLGFSVDDLGCCKVIRHSLWGTHVVVGSIFTNATPDSHIMKKLSGN | not soluble |
| MGHHHHHHSHMDKQSSAGGVKRSVPCDSNEANEMMPETPTGDSDPQPAPKKMKTSESSTILVVRYRRNFKRTSPEELLNDHARENRINPLQMEEEEFMEIMVEIPAK | not soluble |
| MGHHHHHHSHMDSKAIAERIKKLQAQQEHVRIGGKGTPRRKKKVIHKTAAADDKKLQSNLKKLSVTNIPGIEEVNMIKDDGTVIHFNNPKVQTSVPANTFSVTGSADNKQITEMLPGILNQLGPESLTHLKKLANNVTKLGPDGKGEDEDVPELVGDFDAASKNETKADEQ | not soluble |
| MGHHHHHHSHMEDYSQEDWGNHSQDLHGYPTDQELDEIPVTKRTLKIKQESSEEAQKRDIMQNIVQILESVQLKWELFQSWTDFSRLHLSNKLAIFGIGYNTRWKEDIRYHYAEISSQVPLGKRLREYFNSEKPEGRIIMTRVQKMNWKNVYYKFLEITISEARCLELHMEIDWIPIAHSKPTGGNVVQYLLPGGIPKSPGLYAIGYEECIERPLSPHMEQSSLDPGKEGRVDLETLSAQASLQVEIEPTRIIYCYLGIAEVRTLQQCLFLHFQANTKTFSKDWVGINGFLSQNCIVDPGVSPKSIYIKFVEVERDFLSAGSLVECLEKAIGYPLKFNN | not soluble |
| MGHHHHHHSHMFGCLVAGRLVQTAAQQVAEDKFVFDLPDYESINHVVVLMLGTIPFPEGMGGSVYFSYPDSMDASMALLGFVTNGKPSAIFKISGLKSGEGSQHPFGAMNIVRTPSVAQIGISVELLDSMAQQTPVGNAAVSSVDSFTQFTQKMLDNFYNFASSFAVSQAQMTPSPSEMFIPANVVLKWYENFQRRLAQNPLFWKT | not soluble |
| MGHHHHHHSHMGQFYEAESCLVEAGRLPAGQRRFAHFPGLASELLLTGLPLELIDGSTLSMPVRWVTGLLKELHVRLERRSRLVVLSTVGVPGTGKSTLLNTMFGLRFATGKSCGPRGAFMQLITVAEGFSQDLGCDHILVIDSGGLIGGALTSAGDRFELEASLATLLMGLSNVTVISLAETKDIPAAILHAFLRLEKTGHMPNYQFVYQNLHDVSVPGPRPRDKRQLLDPPGDLSRAAAQMEKQGDGFRALAGLAFCDPEKQHIWHIPGLWHGAPPMAAVSLAYSEAIFELKRCLLENIRNGLSNQNKNIQQLIELVRRL | not soluble |
| MGHHHHHHSHMGTVKQLLLFSETEGNPCFLDICGNFLVVGTDLAHFKSFDLSRREAKAHCSCRSLAELVPGVGGIASLRCSSSGSTISILPSKADNSPDSKICFYDVEMDTVTVFDFKTGQIDRRETLSFNEQETNKSHLFVDEGLKNYVPVNHFWDQSEPRLFVCEAVQETPRSQP | soluble |
| MGHHHHHHSHMIDKATGILLYGLASRLRDTRRLSFLVSYIASKKIHTEPQLSAALEYVRSHPLDPIDTVDFERECGVGVIVTPEQIEEAVEAAINRHRPQLLVERYHFNMGLLMGEARAVLKWADGKMIKNEVDMQVLHLLGPKLEADLE | soluble |
